A short description of this series: soluble on expression in E. coli; label from the status in PepcDB or PDB records.
With “HAEVIASGRLEKCVVDGVTEELDCQEKVVVTLTVGNGQSLQTEALEFSLSCLNSPDGRCPCSCSAADPTCACRDLAAPLRVSLTKSPLWASYPLQYLSSFNWKPLEVILRPSNKVCKDGDWEDSPTCGWFSQGGVRVADSQGFCCECSSSQVWDDTFGSSKERTRANLDCDFWSDPLDILIGRKPVSAHCLTFDPQWYSGYELGAASLQFEIAITVEVPTAPSPTTATTSATPRTNNSSSANSTNSTNSPAPQFLSPPAPSTREVLHLGPSVPLASSASRLLSAKLLGDLAMYTQLPAISNQVLMVPQPPAAAAATGSPLDATLATNRSAWMLLDKTMLSMDGLACDKVGTGFSAFRYQPSGCGRAPQACLSGQLKDLWEADLARIADGRVPLYMITRFTGGSDTTLQSFSGGPLSFALPVTSHSQSLVTLSVAADGVRLVTNRSPGKITGAAVCRFAGTSCGGFEAVAARGYIYVNITNTGRLDSDYTLTVSNCSSNVRPIEARTLAVRAGSAASLDPPMELYVEDQAAAAARTCTVSLYDSVGAVTDSLTLSFYTNATQLVVKPSGGYNGTGDGAGVKRNGTDCSTACTNPIDVLCFVTKKCWSKFGR”, the “soluble on expression in E. coli” value is reported as “not soluble”.

Regarding “HDNYADLSDTELTTLLRRYNIPHGPVVGSTRRLYEKKIFEYETQRRR”, the “soluble on expression in E. coli” value is on record as “soluble”.

Regarding “HHHHHHMSKRETFNETFLKAARGEKADHTPVWYMRQAGRSQPEYRKLKEKYGLFEITHQPELCAYVTRLPVEQYGVDAAILYKDIMTPLPSIGVDVEIKNGIGPVIDQPIRSLADIEKLGQIDPEQDVPYVLETIKLLVNEQLNVPLIGFSGAPFTLASYMTEGGPSKNYNKTKAFMYSMPDAWNLLMSKLADMIIVYVKAQIKAGAKAIQIFDSWVGALNQADYRTYIKPVMNRIFSELAKENVPLIMFGVGASHLAGDWHDLPLDVVGLDWRLGIDEARSKGITKTVQGNLDPSILLAPWEVIEQKTKEILDQGMESDGFIFNLGHGVFPDVSPEVLKKLTAFVHEYSQNKKMGQYS”, the “soluble on expression in E. coli” value is “soluble”.

For “HHPEAGNFKQRVILSHVGFDRPTVLVTEGYTAHYATHPRYQEELSKLFNANLVFVEYRYFGESMPKPCNWDYLTVENSLYDLHHVTTTLKQLYDEKWIATGISKGGQTTMFYRTYFPDDVDISVPYVAPLNQSLEDGRHEPFIANKVSTPENRKRVENFQLEVLKRKSRLLPIFEKYCSDKGYTFRIPIAEVYDFNVLEYSFALWQWGTPVNKIPETNADDHTLFKHFMAICEPDYFSEQSPYPSFNVQAAKELGYYGYDIKPFKKYLTIKSSRDYLHKVMLPPELSNLKFDKTLYNKVVKFLKENDPEMIYIYGGDDPWTASGVTWLKNKKNIKVYVLPGGSHTTRIGSFDTDTQEEIKTQINAWLNKE”, the “soluble on expression in E. coli” value is on record as “not soluble”.

With “HITHKLLIPAWDGIVLEGLSVKERKTTNNTVVLALIGHFQTEHHYLNTSFHEFQELFGTELVLINHRNYSNRSNKFANSAEEIARDVLAFAKHFRQKNKKIVLYGMCGGAAHMILAA”, the “soluble on expression in E. coli” value is listed as “not soluble”.

Turning to “HMGCAFLTYCARDSALKAQSALHEQKTLPGMNRPIQVKPADSESRGEDRKLFVGMLGKQQTDEDVRKMFEPFGTIDECTVLRGPDGTSKGCAFVKFQTHAEAQAAINTLHSSRTLPGASSSLVVKFADTEKERGLRRMQQVATQLGMFSPIALQFGAYSAYTQALMQQQAALVAAHSAYLSPMATMAAVQMQHMAAINANGLIATPITPSSGTSTPPAIAATPVSAIPAALGVNGYSPVPTQPTGQPAPDALYPNGVHPYPAQSPAAPVDPLQQAYAGMQHYTAAYPAAYSLVAPAFPQPPALVAQQPPPPPQQQQQQQQQQQQQQQREGPDGCNIFIYHLPQEFTDSEILQMFVPFGHVISAKVFVDRATNQSKCFGFVSFDNPASAQAAIQAMNGFQIGMKRLKVQLKRPKDANRPY”, the “soluble on expression in E. coli” value is “soluble”.

In the case of “HMSKVPRNFRLLEELEKGEKGFGPESCSYGLADSDDITMTKWNGTILGPPHSNHENRIYSLSIDCGPNYPDSPPKVTFISKINLPCVNPTTGEVQTDFHTLRDWKRAYTMETLLLDLRKEMATPANKKLRQPKEGETF”, the “soluble on expression in E. coli” value is “soluble”.

“HPGEVIVLIHGLMRTYVSMKPLKAYLEAQGYQVYLYKYPSARYNIQEHGVYLNQFITTILENNPAIKIHFVTHSLGGIIVREALSKLSQKQLKHVGYLIMLAPPNQGSKLAKFSIKLFPMISYFIKPLAELSSEQTSYVHRVPVPDIKMGIIAGRFDAKVPPDYARLQGQTEQVIINNTHTFIMYDSKVKKLVLSFLEKGKFE”: the “soluble on expression in E. coli” value is reported as “not soluble”.

As for “HQCQGCGSTQLISVGVGTEQLETQLTNLFPEYKTVRIDRDSTRRKGSLEDYLEAIKNNEYQILIGTQMLAKGHHFPNVTLVGLIDVDSSLFSSDFRAPERLAQLFIQVAGRAGRASKPGEVILQTHHPE”, the “soluble on expression in E. coli” value was “not soluble”.

Take “HWCNIAGWPDFDTFLATMDHKHRKNIRQERAKVARSGVRIQSIHGDEATPIELKAMHHFYVNTFHQYGNAPALTLPFLTHLAKTIPRQLVLFMATLNGKLIGGSLCLRSAKTLYGRHWGGAALPGLHFETCYYQGIDYCLREGLTRFEPGAQGKHKIARG”: the “soluble on expression in E. coli” value is given as “not soluble”.

In the case of “IADVVPLDQNNRILAYQGLMRIRARHCRLGIIALAEVANRNVEQFTSSDLGFCIGPRLNAAGRLDNMSIGVELLLANEMSKARELALDLDQLNQTRKEIEAGMKLEAIKICQNLTALFKELPYGITLYQPDWHQGVLGIV”, the “soluble on expression in E. coli” value is “not soluble”.

“IDEKPSDLLLDRIESRFNFDVPRGEGHNTVQAIKAMEEGQAKVFIGLGGNFAQATPDTERTHNAMRNCNLTVHISTKLNRSHLVTGKDALILPCLGRTEIDQQATGPQGVTVEDTFSMVHISFGQLKPRSEHLRSEPAIIAGIANATLGAKPIDWLWAIEDYDRIRDLIADTIPGFTDFNHKLKHPGGFHLVNPAAERRWNTPSGKAQFSSSELPKQLISEAILEKGQKPDLILQTMRSHDQYNTTLYGLNDRYRGVFGMREVLFINEADIRKLGFEPGDKVDMVSLWEDGVERRVSGFTLVAYDVPAGQAAAYYPETNPLVPLDSYGDRTFTPTSKFIAIKLEKSTSNKIALVETE”: the “soluble on expression in E. coli” value is reported as “not soluble”.

As to “IDKITYPTRIGAVVFPHKKHQDALGECRGCHEKGPGRIDGFDKVMAHGKGCKGCHEEMKIGPVRCGDCHKGGSTH”, the “soluble on expression in E. coli” value was “soluble”.

In the case of “IDPFTADAGHTEFTDEVYQNESRYPGGDWKPAEDTYTDANGDKAASPSELTCPPGWEWEDDAWSYDINRAVDEKGWEYGITIPPDHKPKSWVAAEKMYHTHRRRRLVRKRKKDLTQTASSTAR”, the “soluble on expression in E. coli” value is listed as “soluble”.

As for “IDQLNRNQLDLGMCYVDQVNTAYFDVIELDSTKLGVLFDERHFDFAESEVLWESLNNIPLGLLSKGMHYRHSIDLSFVSKGLVPQTVIESNSTFHLIQAVTSGLCCAIMPLNCGLEELNDTLRIIPIEEAAVHAPLGLLKRKQEPFSALTDQCFAEAKNIFNR”, the “soluble on expression in E. coli” value is on record as “not soluble”.

With “IGKVNYNIGFNLSDNRAKVISYPNASKALWDSNGNTLYYNGMTIGEIWGYETEGIAKTDAQMTEWLASNDQSKIGSVWGAGDIMYRDLNGDGIVDKGNSTATDHGDLKKIGNSTPRLRFGLSLGADWKGFDIQMFFQGVMKRDLWLSGPMFWGADGGEWQSVGFDEHLDYFRPENTTSIFGANLNSYYPKAYLGDKGNKNKQTQTRYLQNGAYMRMKNLQIGYTFPKAWMNKAKIEKLRIYVSGENLFTISGIADMFDPEATAGNGFSNGKTYPLSKTISFGLNITL”, the “soluble on expression in E. coli” value is given as “not soluble”.

Regarding “IHHLPPVKAPLQTKKKIMKHCFLCGKKTGLATSFECRCGNNFCASHRYAEAHGCNYDYKSAGRRYLEEANPV”, the “soluble on expression in E. coli” value is “soluble”.

With “IHVNSKEEAIISLVDVVSKEGYLIDKNQFLKDVLKREETLSTYIGHGIGLPHSQSVGVKNSCITIGKLDTPIEWTEEGEKVDLIFLISVTKDNENNLHLKILSKLARLLMHESFRNQIRCSDEQTVYNLIKEKIEE”, the “soluble on expression in E. coli” value is listed as “not soluble”.

Regarding “IIGGQKAKMGNFPWQVFTNIHGRGGGALLGDRWILTAAHTLYPKEHEAQSNASLDVFLGHTNVEELMKLGNHPIRRVSVHPDYRQDESYNFEGDIALLELENSVTLGPNLLPICLPDNDTFYDLGLMGYVSGFGVMEEKIAHDLRFVRLPVANPQACENWLRGKNRMDVFSQNMFCAGHPSLKQDACQGDSGGVFAVRDPNTDRWVATGIVSWGIGCSRGYGFYTKVLNYVDWIKKEMEEED”, the “soluble on expression in E. coli” value is recorded as “soluble”.

The values are drawn from the DeepSol protein solubility set.
